{
  "source": "patent US12371675B2",
  "about": "“Process and microorganism for synthesis of adipic acid from carboxylic acids” (THE GOVERNING COUNCIL OF THE UNIVERSITY OF TORONTO, priority 2015, dated 2025)",
  "key": {"[1]": {"substrate": "O=C(O)CCCCCO", "assay": "purified protein, by the assay type", "details": "other: ATP/NADPH dependent reduction; pH 7.5"}, "[2]": {"substrate": "O=CCCCCC=O", "assay": "AT kinetics, coupled with alanine and glutamate dehydrogenases", "type": "biochemical, Sinorhizobium meliloti", "details": "other: amino-donor Ala/Glu; pH 7.5", "description": "28 PLP-dependent aminotransferases (from the classes I, II and III) were cloned and overexpressed in E. coli (Table 6). Enzymes were purified using affinity chromatography on a Ni-NTA resin and were screened for […] activity towards adipaldehyde using alanine and glutamate as amino-donors. Enzyme activity was measured spectrophotometrically using a coupled reaction with the NADPH/NADH-dependent alanine and glutamate dehydrogenases in the presence of excess of ammonium chloride.\nReaction was monitored by following the decrease in absorbance of NAD(P)H to NAD(P)+ at 340 nm (ε340 nm=6,220/M·cm). Coupled enzymes can aminate pyruvate/ketoglutarate produced by ATs in excess of NH4Cl."}},
  "data": [
    {"protein": "Mycobacterium smegmatis carboxylate reductase MSMEI_5586, SEQ ID NO: 35 (Mycolicibacterium smegmatis MC2 155) (protein) MHQLTVTGMNICEVQRLFPRMTSDVHDATDGVTETALDDEQSTRRIAELYATDPEFAAAAPLPAVVDAAHKPGLRLAEILQTLFTGYGDRPALGYRARELATDEGGRTVTRLLPRFDTLTYAQVWSRVQAVAAALRHNFAQPIYPGDAVATIGFASPDYLTLDLVCAYLGLVSVPLQHNAPVSRLAPILAEVEPRILTVSAEYLDLAVESVRDVNSVSQLVVFDHHPEVDDHRDALARAREQLAGKGIAVTTLDAIADEGAGLPAEPIYTADHDQRLAMILYTSGSTGAPKGAMYTEAMVARLWTMSFITGDPTPVINVNFMPLNHLGGRIPISTAVQNGGTSYFVPESDMSTLFEDLALVRPTELGLVPRVADMLYQHHLATVDRLVTQGADELTAEKQAGAELREQVLGGRVITGFVSTAPLAAEMRAFLDITLGAHIVDGYGLTETGAVTRDGVIVRPPVIDYKLIDVPELGYFSTDKPYPRGELLVRSQTLTPGYYKRPEVTASVFDRDGYYHTGDVMAETAPDHLVYVDRRNNVLKLAQGEFVAVANLEAVFSGAALVRQIFVYGNSERSFLLAVVVPTPEALEQYDPAALKAALADSLQRTARDAELQSYEVPADFIVETEPFSAANGLLSGVGKLLRPNLKDRYGQRLEQMYADIAATQANQLRELRRAAATQPVIDTLTQAAATILGTGSEVASDAHFTDLGGDSLSALTLSNLLSDFFGFEVPVGTIVNPATNLAQLAQHIEAQRTAGDRRPSFTTVHGADATEIRASELTLDKFIDAETLRAAPGLPKVTTEPRTVLLSGANGWLGRFLTLQWLERLAPVGGTLITIVRGRDDAAARARLTQAYDTDPELSRRFAELADRHLRVVAGDIGDPNLGLTPEIWHRLAAEVDLVVHPAALVNHVLPYRQLFGPNVVGTAEVIKLALTERIKPVTYLSTVSVAMGIPDFEEDGDIRTVSPVRPLDGGYANGYGNSKWAGEVLLREAHDLCGLPVATFRSDMILAHPRYRGQVNVPDMFTRLLLSLLITGVAPRSFYIGDGERPRAHYPGLTVDFVAEAVTTLGAQQREGYVSYDVMNPHDDGISLDVFVDWLIRAGHPIDRVDDYDDWVRRFETALTALPEKRRAQTVLPLLHAFRAPQAPLRGAPEPTEVFHAAVRTAKVGPGDIPHLDEALIDKYIRDLREFGLI", "values": [
      {"measurement": "Km", "setting": "[1]", "result": "16.2 ± 2.11", "unit": "mM"},
      {"measurement": "kcat", "setting": "[1]", "result": "1.2 ± 0.07", "unit": "s⁻¹"},
      {"measurement": "kcat/Km", "setting": "[1]", "result": "74.2 ± 4.05", "unit": "M⁻¹ s⁻¹"}
    ]},
    {"protein": "Mycobacterium smegmatis carboxylate reductase MSMEG_5739, SEQ ID NO: 37 (Mycolicibacterium smegmatis MC2 155) (protein) MTSDVHDATDGVTETALDDEQSTRRIAELYATDPEFAAAAPLPAVVDAAHKPGLRLAEILQTLFTGYGDRPALGYRARELATDEGGRTVTRLLPRFDTLTYAQVWSRVQAVAAALRHNFAQPIYPGDAVATIGFASPDYLTLDLVCAYLGLVSVPLQHNAPVSRLAPILAEVEPRILTVSAEYLDLAVESVRDVNSVSQLVVFDHHPEVDDHRDALARAREQLAGKGIAVTTLDAIADEGAGLPAEPIYTADHDQRLAMILYTSGSTGAPKGAMYTEAMVARLWTMSFITGDPTPVINVNFMPLNHLGGRIPISTAVQNGGTSYFVPESDMSTLFEDLALVRPTELGLVPRVADMLYQHHLATVDRLVTQGADELTAEKQAGAELREQVLGGRVITGFVSTAPLAAEMRAFLDITLGAHIVDGYGLTETGAVTRDGVIVRPPVIDYKLIDVPELGYFSTDKPYPRGELLVRSQTLTPGYYKRPEVTASVFDRDGYYHTGDVMAETAPDHLVYVDRRNNVLKLAQGEFVAVANLEAVFSGAALVRQIFVYGNSERSFLLAVVVPTPEALEQYDPAALKAALADSLQRTARDAELQSYEVPADFIVETEPFSAANGLLSGVGKLLRPNLKDRYGQRLEQMYADIAATQANQLRELRRAAATQPVIDTLTQAAATILGTGSEVASDAHFTDLGGDSLSALTLSNLLSDFFGFEVPVGTIVNPATNLAQLAQHIEAQRTAGDRRPSFTTVHGADATEIRASELTLDKFIDAETLRAAPGLPKVTTEPRTVLLSGANGWLGRFLTLQWLERLAPVGGTLITIVRGRDDAAARARLTQAYDTDPELSRRFAELADRHLRVVAGDIGDPNLGLTPEIWHRLAAEVDLVVHPAALVNHVLPYRQLFGPNVVGTAEVIKLALTERIKPVTYLSTVSVAMGIPDFEEDGDIRTVSPVRPLDGGYANGYGNSKWAGEVLLREAHDLCGLPVATFRSDMILAHPRYRGQVNVPDMFTRLLLSLLITGVAPRSFYIGDGERPRAHYPGLTVDFVAEAVTTLGAQQREGYVSYDVMNPHDDGISLDVFVDWLIRAGHPIDRVDDYDDWVRRFETALTALPEKRRAQTVLPLLHAFRAPQAPLRGAPEPTEVFHAAVRTAKVGPGDIPHLDEALIDKYIRDLREFGLI", "values": [
      {"measurement": "Km", "setting": "[1]", "result": "8.33 ± 0.73", "unit": "mM"},
      {"measurement": "kcat", "setting": "[1]", "result": "1.21 ± 0.04", "unit": "s⁻¹"},
      {"measurement": "kcat/Km", "setting": "[1]", "result": "145 ± 4.4", "unit": "M⁻¹ s⁻¹"}
    ]},
    {"protein": "Sinorhizobium meliloti aminotransferase SM2011_c04388, SEQ ID NO: 58 (Sinorhizobium meliloti 1021) (protein) MNAHNKPNAPVLDSYWMPFTANRQFKAAPRLLAAAEGMHYTSVDGRTVLDGTAGLWCVNAGHGRRQIAAAVERQLSTMDFAPSFQMGHPIAFDFAERLAEIAPGPAGAKLDRVFFTGSGSESVDTALKMALAYQRSIGQGTRTRLIGRERGYHGVGFGGISVGGIVNNRRVFPQLPGSDHLRHTHDPAKNAFVKGQPEHGAELADDLERLVALHGAETIAACIVEPVAGSTGVLIPPKGYLERLRAICDKHGILLIFDEVITGFGRLGAAFATDYFGVTPDIVTTAKGLTNGAIPMGAVFASRKVHDALMHGPEGQIELFHGYTYSGHPAACAAGIATLDIYRDEGLMTRAAEIEGDWHEAMHSMKGLPHVIDIRTIGLIAGIELQSRDGAPGARAYDVFVDCFERGLLIRVTGDIIAFSPPLIAEKQHFGEIVSILADALKRVK", "values": [
      {"measurement": "Km", "setting": "[2]", "result": "8.58 ± 3.34", "unit": "mM"}
    ]},
    {"protein": "Sinorhizobium meliloti aminotransferase SM2011_b20379, SEQ ID NO: 59 (Sinorhizobium meliloti 1021) (protein) MNDRPNSLHALDKQSLVHPYTNLAVHQETGPHVITGGDGIYVVDDEGKRYIEGLAGLFCAGLGFSEQRLVEAATRQLKTMPFYHSFAHKSTEPGIRLAEKLLSIAPVPMSKVFFAGSGSEANDTAIKLIWYYNNALGRPEKKKIISRRKAYHGVTVATASLTGLPFNHRDFDLPIANILHTDCPHYWRFAETGETEEDFATRMANNLEAIILEEGPETIAAFFAEPVMVSGGVITPPKTYFEKVQAVLRKYDILLIADEVICGFGRTGNMFGSETYGLKPDMISCAKQLSAAYMPISALMINAKIADALVDQSRKIGTFSHGFTYGGHPVAAAVALEALTIYEEIDIVGHVRSVAPAFQDRVRKLGEHPLIGEARGVGLVAGLEFVKDKATRENFPPAWQVANQAGKFATARGVLTRGLGDMVSLCPAMIIDDEQIDDLMTRMGLALDDTLAWARAQGHVG", "values": [
      {"measurement": "Km", "setting": "[2]", "result": "0.32 ± 0.10", "unit": "mM"},
      {"measurement": "kcat", "setting": "[2]", "result": "0.26 ± 0.05", "unit": "s⁻¹"},
      {"measurement": "kcat/Km", "setting": "[2]", "result": "(8.08 ± 1.52) × ×10^2 M^−1 · s^−1"}
    ]},
    {"protein": "Mycobacterium smegmatis carboxylate reductase MSMEG_2956, SEQ ID NO: 70 (Mycolicibacterium smegmatis MC2 155) (protein) MTIETREDRFNRRIDHLFETDPQFAAARPDEAISAAAADPELRLPAAVKQILAGYADRPALGKRAVEFVTDEEGRTTAKLLPRFDTITYRQLAGRIQAVTNAWHNHPVNAGDRVAILGFTSVDYTTIDIALLELGAVSVPLQTSAPVAQLQPIVAETEPKVIASSVDFLADAVALVESGPAPSRLVVFDYSHEVDDQREAFEAAKGKLAGTGVVVETITDALDRGRSLADAPLYVPDEADPLTLLIYTSGSTGTPKGAMYPESKTATMWQAGSKARWDETLGVMPSITLNFMPMSHVMGRGILCSTLASGGTAYFAARSDLSTFLEDLALVRPTQLNFVPRIWDMLFQEYQSRLDNRRAEGSEDRAEAAVLEEVRTQLLGGRFVSALTGSAPISAEMKSWVEDLLDMHLLEGYGSTEAGAVFIDGQIQRPPVIDYKLVDVPDLGYFATDRPYPRGELLVKSEQMFPGYYKRPEITAEMFDEDGYYRTGDIVAELGPDHLEYLDRRNNVLKLSQGEFVTVSKLEAVFGDSPLVRQIYVYGNSARSYLLAVVVPTEEALSRWDGDELKSRISDSLQDAARAAGLQSYEIPRDFLVETTPFTLENGLLTGIRKLARPKLKAHYGERLEQLYTDLAEGQANELRELRRNGADRPVVETVSRAAVALLGASVTDLRSDAHFTDLGGDSLSALSFSNLLHEIFDVDVPVGVIVSPATDLAGVAAYIEGELRGSKRPTYASVHGRDATEVRARDLALGKFIDAKTLSAAPGLPRSGTEIRTVLLTGATGFLGRYLALEWLERMDLVDGKVICLVRARSDDEARARLDATFDTGDATLLEHYRALAADHLEVIAGDKGEADLGLDHDTWQRLADTVDLIVDPAALVNHVLPYSQMFGPNALGTAELIRIALTTTIKPYVYVSTIGVGQGISPEAFVEDADIREISATRRVDDSYANGYGNSKWAGEVLLREAHDWCGLPVSVFRCDMILADTTYSGQLNLPDMFTRLMLSLVATGIAPGSFYELDADGNRQRAHYDGLPVEFIAEAISTIGSQVTDGFETFHVMNPYDDGIGLDEYVDWLIEAGYPVHRVDDYATWLSRFETALRALPERQRQASLLPLLHNYQQPSPPVCGAMAPTDRFRAAVQDAKIGPDKDIPHVTADVIVKYISNLQMLGLL", "values": [
      {"measurement": "Km", "setting": "[1]", "result": "66.15 ± 9.48", "unit": "mM"},
      {"measurement": "kcat", "setting": "[1]", "result": "2.32 ± 0.22", "unit": "s⁻¹"},
      {"measurement": "kcat/Km", "setting": "[1]", "result": "35.1 ± 3.29", "unit": "M⁻¹ s⁻¹"}
    ]},
    {"protein": "Sinorhizobium meliloti aminotransferase SM2011_b20423, SEQ ID NO: 60 (Sinorhizobium meliloti 1021) (protein) MLERSNELTAWDRDHFFHPSTHMGMHARGETPTRVIGGGEGVYITDISGKRSLDAFAGLYCVNVGYGRQKIADAIAEQAKNLAYYHAYVGHGTEASIRLSKMIIDRAPEGMSRVYFGLSGSDANETNIKLIWYYNNILGRPEKKKIISRWRGYHGSGVMTGSLTGLHLFHNAFDLPRAPILHTEAPYYFRRPDRSMSEEQFSQYCADKLEEMILAEGPDTVAAFIGEPILGTGGIVPPPKGYWEKIQAVLQKYDILLVADEVVTGFGRLGTMFGSDHYGIKPDLITIAKGLTSAYAPLSGTIVSDKLWQVLVKGSDELGAIGHGWTYSAHPICAAAGIANLELIDELGIVENAGSTGAYFRAELQKAVGDHRHVGEVRGDGLMAAIEFVEDRDDRAFFDPGRKVGPQVAAALLERGVIGRAMPQGDILGFAPPLCLTRDEADIVVKAAADTIQSVLGR", "values": [
      {"measurement": "Km", "setting": "[2]", "result": "2.64 ± 0.35", "unit": "mM"},
      {"measurement": "kcat", "setting": "[2]", "result": "0.28 ± 0.01", "unit": "s⁻¹"},
      {"measurement": "kcat/Km", "setting": "[2]", "result": "(1.05 ± 0.06) × ×10^2 M^−1 · s^−1"}
    ]}
  ]
}
